Numbering of substitutions follows the chain as printed. Blank lines part the entries; values can stand above or below the binder they belong to.
Assays:
S1Cr_D23A+E24A = target: T1, S1Cr_D23A+E24A; assay: yeast two-hybrid, EPYC1 as BD and SSU variant as AD
T1 construct: variant of m7
T1 chain: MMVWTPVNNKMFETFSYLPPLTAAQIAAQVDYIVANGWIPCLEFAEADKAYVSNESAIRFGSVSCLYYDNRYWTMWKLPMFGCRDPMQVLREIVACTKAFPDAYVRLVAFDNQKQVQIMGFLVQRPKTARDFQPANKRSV
From the text: (§1) FIGS. 9A-9C show the results of a yeast two-hybrid (Y2H) assay to measure the interaction between EPYC1 and Rubisco SSU variants. […] The images shown were taken following three days of cell growth. The Rubisco SSU residues that form salt bridges with EPYC1 residues are bolded (D23, E24, and R91) and the residues that form the hydrophobic pocket with EPYC1 residues are bolded and italicized (M87 and V94). The “Control” images were taken from cells grown for three days on SD-L-W media and the “Test” images were taken from cells grown for three days on SD-L-W-H with 3-AT. Growth of yeast cells expressing the indicated EPYC1 and Rubisco SSU variants was measured after three days on SD-L-W-H with varying 3-AT concentrations. The highest concentration of 3-AT (0, 1, 2.5, 5, 10, and 20 mM) permissive for the growth of each EPYC1 and Rubisco SSU variant combination is shown, as indicated in the “Key” on the right.
(§2) Mutagenesis of EPYC1, Mutagenesis of Rubisco, Yeast Two-hybrid, Peptide Arrays and SPR Assays To determine the importance of individual EPYC1 residues for binding to Rubisco, the impact on Rubisco binding of every possible single amino acid substitution for EPYC1 RBM 2 was determined (FIG. 8). To determine the importance of individual Rubisco residues for binding to EPYC1, targeted mutations of the amino acids identified from atomic modeling were tested in a yeast two-hybrid assay as in van Nues and Beggs (Genetics 157: 1451-1467, 2000). Peptide arrays and SPR assays were performed as in Example 1.

S1Cr_D23A+E24A+R91A = target: T2, S1Cr_D23A+E24A+R91A; assay: as above
T2 construct: variant of m7
T2 chain: T1 chain with R91A
From the text: as §1, §2

S1Cr_D23A = target: T3, S1Cr_D23A; assay: as above
T3 construct: variant of m7
T3 chain: T1 chain with A24E
From the text: as §1, §2

S1Cr_M87D/V94D = target: T4, S1Cr_M87D/V94D; assay: yeast two-hybrid, Control SD-L-W, Test SD-L-W-H with 3-AT (concentration not given)
T4 construct: variant of m7
T4 chain: T1 chain with A23D, A24E, M87D, V94D
From the text: as §1
Mutagenesis of EPYC1, Mutagenesis of Rubisco, Yeast Two-hybrid, Peptide Arrays and SPR Assays To determine the importance of individual EPYC1 residues for binding to Rubisco, the impact on Rubisco binding of every possible single amino acid substitution for EPYC1 RBM 2 was determined (FIG. 8). […]

S1Cr_M87D = S1Cr_M87D (Chlamydomonas reinhardtii); assay: cell-based or functional assay
S1Cr_V94D = S1Cr_V94D (Chlamydomonas reinhardtii); assay: cell-based or functional assay
[1] = target: Chlamydomonas reinhardtii Rubisco small subunit 1 (Chlamydomonas reinhardtii, UniProt P00873 46-185); assay: cell-based or functional assay
[2] = target: T5, Chlamydomonas reinhardtii Rubisco holoenzyme (L8S8) (Chlamydomonas reinhardtii, UniProt P00877 3-475); assay: SPR, steady-state fit
T5 construct: Purified from C. reinhardtii strain cMJ030 (sucrose gradient, anion exchange); also called purified Rubisco; Cr L8S8 Rubisco

[3] = target: T5, Chlamydomonas reinhardtii Rubisco …; assay: SPR, Rubisco immobilized, peptide at 0-4.0 mM in solution (FIG. 4C)
From the text: FIGS. 4A-4C show the EPYC1 fragment that was used to generate the cryoelectron microscopy structure shown in FIGS. 5A-5D, as well as the binding affinity of the EPYC1 fragment for Rubisco. […] The four nearly identical repeats (Repeats 1-4), flanked by short N- and C- termini are indicated. The dark grey boxes represent the ten RBMs on EPYC1. The dark grey bar above the boxes (“EPYC1 peptide”) spans RBM 2 of EPYC1 and represents the 24 amino acid EPYC1 fragment (SEQ ID NO: 51) that was used to generate the cryoelectron microscopy structure of Rubisco bound to the RBM 2 EPYC1 fragment shown in FIGS. 5A-5D. FIGS. 4B-4C provide results of SPR experiments to determine the binding affinity of the 24 amino acid EPYC1 fragment diagramed in FIG. 4A for Rubisco. […] The response difference (Resp. Diff., in RU) is shown on the y-axis.
Surface Plasmon Resonance (SPR) Assay Rubisco was immobilized on a surface and peptides in solution were flowed over the surface. Surface plasmon measurements of binding of individual peptides to Rubisco were assayed (FIG. 3B).

[4] = target: T5, Chlamydomonas reinhardtii Rubisco …; assay: SPR; highest binding affinity of all peptides tested

binding result (S1Cr_D23A+E24A): no binding
binding result (S1Cr_D23A+E24A+R91A): no binding
binding result (S1Cr_D23A): no binding
binding result (S1Cr_M87D/V94D): no binding
highest 3-AT concentration permissive for growth (Y2H), box pattern read against the printed key (S1Cr_M87D): 0 mM 3-AT
highest 3-AT concentration permissive for growth (Y2H), box pattern read against the printed key (S1Cr_V94D): 0 mM 3-AT
highest 3-AT concentration permissive for growth (Y2H), box pattern read against the printed key [1]: 20 mM 3-AT
B1: Chlamydomonas reinhardtii Essential Pyrenoid Component 1 (EPYC1) (other)
chain: MATISSMRVGAASRVVVSGRVKTVKVAARGSWRESSTATVQASRASSATNRVSPTRSVLPANWRQELESLRNGNGSSSAASSAPAPARSSSASWRDAAPASSAPARSSSASKKAVTPSRSALPSNWKQELESLRSSSPAPASSAPAPARSSSASWRDAAPASSAPARSSSSKKAVTPSRSALPSNWKQELESLRSSSPAPASSAPAPARSSSASWRDAAPASSAPARSSSASKKAVTPSRSALPSNWKQELESLRSNSPAPASSAPAPARSSSASWRDAPASSSSSSADKAGTNPWTGKSKPEIKRTALPADWRKGL
notes: also called WT EPYC1

Ka [2]: 324 M⁻¹
Kd [3]: 3.09 mM
Kd [4]: 3 mM
B2: 24 amino acid EPYC1 fragment spanning RBM 2 (peptide)
peptide: TNRVSPTRSVLPANWRQELESLRN
notes: also called EPYC1 peptide; RBM 2 EPYC1 fragment

Reference: patent publication US20220275390A1 (TRUSTEES OF PRINCETON UNIVERSITY, published 2022)
